Residue numbers refer to the chain shown, from its start.
T1: MHP14(07) (artificial)
T1 chain: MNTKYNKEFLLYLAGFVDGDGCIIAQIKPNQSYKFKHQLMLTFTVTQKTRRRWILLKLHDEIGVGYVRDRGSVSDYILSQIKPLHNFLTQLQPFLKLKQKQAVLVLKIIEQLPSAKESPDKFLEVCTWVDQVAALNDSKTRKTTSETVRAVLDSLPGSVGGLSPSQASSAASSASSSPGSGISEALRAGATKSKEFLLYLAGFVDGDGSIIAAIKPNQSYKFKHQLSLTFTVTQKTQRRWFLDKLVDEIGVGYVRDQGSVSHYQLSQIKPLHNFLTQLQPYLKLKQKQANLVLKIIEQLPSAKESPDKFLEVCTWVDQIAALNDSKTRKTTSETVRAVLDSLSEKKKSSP

T2: MHP14(L14-07) (artificial)
T2 chain: T1 chain with Y12H, C22S, R50Q, I54F, L56D, H59V, V103N, V132T, Y281F

T3: ZM6.3(H6) (artificial)
T3 chain: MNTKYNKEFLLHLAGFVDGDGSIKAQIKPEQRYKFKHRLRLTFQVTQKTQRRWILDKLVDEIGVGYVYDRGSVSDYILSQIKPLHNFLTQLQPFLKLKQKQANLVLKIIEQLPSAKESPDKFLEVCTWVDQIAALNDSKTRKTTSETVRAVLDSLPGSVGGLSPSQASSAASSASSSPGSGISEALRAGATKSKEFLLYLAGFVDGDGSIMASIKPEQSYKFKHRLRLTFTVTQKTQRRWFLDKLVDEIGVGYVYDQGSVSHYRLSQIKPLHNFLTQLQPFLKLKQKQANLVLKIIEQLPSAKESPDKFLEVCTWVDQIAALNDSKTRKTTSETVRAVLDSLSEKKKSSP

T4: ZM6.3(G1) (artificial)
T4 chain: T3 chain with H12Y, Q50R, Q80R

T5: ZM6.3(G6) (artificial)
T5 chain: T3 chain with H12Y, R32S, K57E, V105A, E124R, Q237R

B1: MHP14 recognition site (dsDNA)
DNA 1: CAAACAGATTCACGTCAGATTT
DNA 2: AAATCTGACGTGAATCTGTTTG
B2: ZM6.3 recognition site (dsDNA)
DNA 1: CAGGCTCTCGTAAATGCGCCTG
DNA 2: CAGGCGCATTTACGAGAGCCTG

How the values were obtained:
Settings in all cases: tags: NLS, 6xHis
[1] = target: T1, MHP14(07); assay: cell_activity; yeast 37 C; 28 C: 0.5
Procedure: (§1) A 3 mL culture of selective media (MP Biomedical) was inoculated with a single colony of the yeast screening strain and grown at 30° C. overnight. On the following day, a 50 ml YPD culture (MP Biomedical) was started with 2 ml of the overnight culture and grown at 30° C. overnight. On the following day, the cells were harvested by centrifugation at 4000 rpm. The cells were resuspended in 100 ml ice cold water and centrifuged again. The cells were then washed in 1.2 M sorbitol, followed by treatment with 2 ml of 10 mM Tris pH 8.0, 1 mM EDTA, 100 mM Lithium acetate, 10 mM DTT, 0.6M sorbitol for 30 minutes at 30° C. with shaking. The cells were recovered by centrifugation, washed in 40 ml 1.2M sorbitol and finally resuspended in 250 microliters of 1.2M sorbitol. 50 microliter aliquots were transferred to test tubes on ice. Up to 5 microliters of DNA (100-500 nanograms) were added. The suspension was transferred to a 0.2 cm electroporation cuvette, on ice. Electroporation was performed with a pulse charge at 1.5 kV, 200 ohms, 25 microF (pulse time of 5 milliseconds). 1 mL YPD media (MP Biomedical) was added and the cells were allowed to recover at 30° C. for 1-2 hr. The cells were centrifuged, resuspended in 100 uL 1M sorbitol and plated on selective media lacking leucine and containing 2% galactose. The resulting yeast colonies were incubated at various temperatures ranging from 22 to 37 degrees Celsius for 7-10 days. I-CreI and meganucleases derived from it have maximal activity at or above 37 degrees Celsius. Screening was performed at a range of temperatures from 22 to 37 degrees in order to observe increases in activity at lower temperatures which are relevant to certain biological systems (eg. plant cells, plant cell cultures, etc). At that time the red/white sectoring phenotype, indicative of meganuclease activity was observed. Colonies with increased white sectoring over the parental meganuclease (indicating colonies expressing a meganuclease with increased meganuclease activity), also referred to as “hits” and sometimes completely white, were isolated for further analysis. […]

[2] = target: T2, MHP14(L14-07); assay: cell_activity; yeast 37 C; 28 C: 0.5
Procedure: as §1

[3] = target: T3, ZM6.3(H6); assay: cell_activity; yeast 37 C; 28 C: 4
Procedure: (§2) A 3 mL culture of selective media (MP Biomedical) was inoculated with a single colony of the yeast screening strain and grown at 30° C. overnight. On the following day, a 50 ml YPD culture (MP Biomedical) was started with 2 ml of the overnight culture and grown at 30° C. overnight. On the following day, the cells were harvested by centrifugation at 4000 rpm. The cells were resuspended in 100 ml ice cold water and centrifuged again. The cells were then washed in 1.2 M sorbitol, followed by treatment with 2 ml of 10 mM Tris pH 8.0, 1 mM EDTA, 100 mM Lithium acetate, 10 mM DTT, 0.6M sorbitol for 30 minutes at 30° C. with shaking. The cells were recovered by centrifugation, washed in 40 ml 1.2M sorbitol and finally resuspended in 250 microliters of 1.2M sorbitol. 50 microliter aliquots were transferred to test tubes on ice. Up to 5 microliters of DNA (100-500 nanograms) were added. The suspension was transferred to a 0.2 cm electroporation cuvette, on ice. Electroporation was performed with a pulse charge at 1.5 kV, 200 ohms, 25 microF (pulse time of 5 milliseconds). 1 mL YPD media (MP Biomedical) was added and the cells were allowed to recover at 30° C. for 1-2 hr. The cells were centrifuged, resuspended in 100 uL 1M sorbitol and plated on selective media lacking leucine and containing 2% galactose. The resulting yeast colonies were incubated at various temperatures ranging from 22 to 37 degrees Celsius for 7-10 days. I-CreI and meganucleases derived from it have maximal activity at or above 37 degrees Celsius. Screening was performed at a range of temperatures from 22 to 37 degrees in order to observe increases in activity at lower temperatures which are relevant to certain biological systems (eg. plant cells, plant cell cultures, etc). At that time the red/white sectoring phenotype, indicative of meganuclease activity was observed. Colonies with increased white sectoring over the parental meganuclease (indicating colonies expressing a meganuclease with increased meganuclease activity), also referred to as “hits” and sometimes completely white, were isolated for further analysis.
(§3) A total of 15 Zm6.3 variants with increased activity were confirmed in the yeast system (as described in Example 6). Increased activity was observed across a range of temperatures: 28 degrees Celsius, 30 degrees Celsius and 37 degrees Celsius, as shown in Table 15.

[4] = target: T4, ZM6.3(G1); assay: cell_activity; yeast 37 C; 28 C: 4
Procedure: as §2, §3

[5] = target: T5, ZM6.3(G6); assay: cell_activity; yeast 37 C; 28 C: 4
Procedure: as §2, §3

Binder	activity [1] [score 0-4]	activity [2] [score 0-4]	activity [3] [score 0-4]	activity [4] [score 0-4]	activity [5] [score 0-4]
B1	2.5	4	–	–	–
B2	–	–	4	4	4

Source: US20140223606, “COMPOSITIONS AND METHODS COMPRISING SEQUENCES HAVING MEGANUCLEASE ACTIVITY” (PIONEER HI BRED INTERNATIONAL INC, published 2014)
